Experimental data: PMC13016609, “UV irradiation alters TFAM binding specificity and compaction of DNA”

What was measured:
TFAM (no MTS) [1] = target: T1, TFAM (no MTS) (Homo sapiens, UniProt Q00059 43-246); experiment: fluorescence anisotropy; Hill n 2.64±0.22; FP: 25 mM HEPES, 10 mM Mg(OAc)2, 25 mM NaOAc, 75 mM KOAc, pH 7.5, 1 nM DNA, TFAM 0-15 nM diluted on ice (read temperature not stated); AFM oligos: on ice, 2 min; details: protein: recombinant; label: 5' 6-FAM on strand 1; blunt
T1 sequence: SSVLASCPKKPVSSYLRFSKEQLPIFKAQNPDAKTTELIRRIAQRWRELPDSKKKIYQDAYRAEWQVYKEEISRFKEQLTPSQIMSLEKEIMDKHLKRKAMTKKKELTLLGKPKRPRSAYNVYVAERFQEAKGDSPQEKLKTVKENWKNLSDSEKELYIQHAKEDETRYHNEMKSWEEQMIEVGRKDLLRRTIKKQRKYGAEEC

TFAM (no MTS) [2] = target: T1, TFAM (no MTS); experiment: fluorescence anisotropy; +UVC; Hill n 2.61±0.25; FP: 25 mM HEPES, 10 mM Mg(OAc)2, 25 mM NaOAc, 75 mM KOAc, pH 7.5, 1 nM DNA, TFAM 0-15 nM diluted on ice (read temperature not stated); AFM oligos: on ice, 2 min; details: protein: recombinant; label: 5' 6-FAM on strand 1; blunt
TFAM (no MTS) [3] = target: T1, TFAM (no MTS); experiment: fluorescence anisotropy; Hill n 3.04±0.19; FP: 25 mM HEPES, 10 mM Mg(OAc)2, 25 mM NaOAc, 75 mM KOAc, pH 7.5, 1 nM DNA, TFAM 0-15 nM diluted on ice (read temperature not stated); AFM oligos: on ice, 2 min; details: protein: recombinant; label: 5' 6-FAM on strand 1; blunt
TFAM (no MTS) [4] = target: T1, TFAM (no MTS); experiment: fluorescence anisotropy; +UVC; Hill n 1.90±0.12; FP: 25 mM HEPES, 10 mM Mg(OAc)2, 25 mM NaOAc, 75 mM KOAc, pH 7.5, 1 nM DNA, TFAM 0-15 nM diluted on ice (read temperature not stated); AFM oligos: on ice, 2 min; details: protein: recombinant; label: 5' 6-FAM on strand 1; blunt
TFAM (no MTS) [5] = target: T1, TFAM (no MTS); experiment: fluorescence anisotropy; Hill n 2.15±0.24; FP: 25 mM HEPES, 10 mM Mg(OAc)2, 25 mM NaOAc, 75 mM KOAc, pH 7.5, 1 nM DNA, TFAM 0-15 nM diluted on ice (read temperature not stated); AFM oligos: on ice, 2 min; details: protein: recombinant; label: 5' 6-FAM on strand 1; blunt
TFAM (no MTS) [6] = target: T1, TFAM (no MTS); experiment: fluorescence anisotropy; +UVC; Hill n 1.81±0.05; FP: 25 mM HEPES, 10 mM Mg(OAc)2, 25 mM NaOAc, 75 mM KOAc, pH 7.5, 1 nM DNA, TFAM 0-15 nM diluted on ice (read temperature not stated); AFM oligos: on ice, 2 min; details: protein: recombinant; label: 5' 6-FAM on strand 1; blunt
TFAM (no MTS) [7] = target: T1, TFAM (no MTS); experiment: fluorescence anisotropy; Hill n 2.84±0.14; FP: 25 mM HEPES, 10 mM Mg(OAc)2, 25 mM NaOAc, 75 mM KOAc, pH 7.5, 1 nM DNA, TFAM 0-15 nM diluted on ice (read temperature not stated); AFM oligos: on ice, 2 min; details: protein: recombinant; label: 5' 6-FAM on strand 1; blunt
TFAM (no MTS) [8] = target: T1, TFAM (no MTS); experiment: fluorescence anisotropy; +UVC; Hill n 2.27±0.26; FP: 25 mM HEPES, 10 mM Mg(OAc)2, 25 mM NaOAc, 75 mM KOAc, pH 7.5, 1 nM DNA, TFAM 0-15 nM diluted on ice (read temperature not stated); AFM oligos: on ice, 2 min; details: protein: recombinant; label: 5' 6-FAM on strand 1; blunt
TFAM (no MTS) [9] = target: T1, TFAM (no MTS); experiment: fluorescence anisotropy; Hill n 5.06±0.09; FP: 25 mM HEPES, 10 mM Mg(OAc)2, 25 mM NaOAc, 75 mM KOAc, pH 7.5, 1 nM DNA, TFAM 0-15 nM diluted on ice (read temperature not stated); AFM oligos: on ice, 2 min; details: protein: recombinant; label: 5' 6-FAM on strand 1 (FP); blunt
TFAM (no MTS) [10] = target: T1, TFAM (no MTS); experiment: fluorescence anisotropy; +UVC; Hill n 4.76±0.11; FP: 25 mM HEPES, 10 mM Mg(OAc)2, 25 mM NaOAc, 75 mM KOAc, pH 7.5, 1 nM DNA, TFAM 0-15 nM diluted on ice (read temperature not stated); AFM oligos: on ice, 2 min; details: protein: recombinant; label: 5' 6-FAM on strand 1; blunt
TFAM (no MTS) [11] = target: T1, TFAM (no MTS); experiment: fluorescence anisotropy; Hill n 2.40±0.43; FP: 25 mM HEPES, 10 mM Mg(OAc)2, 25 mM NaOAc, 75 mM KOAc, pH 7.5, 1 nM DNA, TFAM 0-15 nM diluted on ice (read temperature not stated); AFM oligos: on ice, 2 min; details: protein: recombinant; label: 5' 6-FAM on strand 1; blunt
TFAM (no MTS) [12] = target: T1, TFAM (no MTS); experiment: fluorescence anisotropy; +UVC; Hill n 2.20±0.13; FP: 25 mM HEPES, 10 mM Mg(OAc)2, 25 mM NaOAc, 75 mM KOAc, pH 7.5, 1 nM DNA, TFAM 0-15 nM diluted on ice (read temperature not stated); AFM oligos: on ice, 2 min; details: protein: recombinant; label: 5' 6-FAM on strand 1; blunt
TFAM (no MTS) [13] = target: T1, TFAM (no MTS); experiment: fluorescence anisotropy; Hill n 3.09±0.11; FP: 25 mM HEPES, 10 mM Mg(OAc)2, 25 mM NaOAc, 75 mM KOAc, pH 7.5, 1 nM DNA, TFAM 0-15 nM diluted on ice (read temperature not stated); AFM oligos: on ice, 2 min; details: protein: recombinant; label: 5' 6-FAM on strand 1; blunt
TFAM (no MTS) [14] = target: T1, TFAM (no MTS); experiment: fluorescence anisotropy; +UVC; Hill n 4.38±0.33; FP: 25 mM HEPES, 10 mM Mg(OAc)2, 25 mM NaOAc, 75 mM KOAc, pH 7.5, 1 nM DNA, TFAM 0-15 nM diluted on ice (read temperature not stated); AFM oligos: on ice, 2 min; details: protein: recombinant; label: 5' 6-FAM on strand 1; blunt
TFAM (no MTS) [15] = target: T1, TFAM (no MTS); experiment: fluorescence anisotropy; Hill n 3.85±0.49; FP: 25 mM HEPES, 10 mM Mg(OAc)2, 25 mM NaOAc, 75 mM KOAc, pH 7.5, 1 nM DNA, TFAM 0-15 nM diluted on ice (read temperature not stated); AFM oligos: on ice, 2 min; details: protein: recombinant; label: 5' 6-FAM on strand 1 (FP); blunt
TFAM (no MTS) [16] = target: T1, TFAM (no MTS); experiment: fluorescence anisotropy; +UVC; Hill n 2.94±0.40; FP: 25 mM HEPES, 10 mM Mg(OAc)2, 25 mM NaOAc, 75 mM KOAc, pH 7.5, 1 nM DNA, TFAM 0-15 nM diluted on ice (read temperature not stated); AFM oligos: on ice, 2 min; details: protein: recombinant; label: 5' 6-FAM on strand 1; blunt
TFAM (no MTS) [17] = target: T1, TFAM (no MTS); experiment: fluorescence anisotropy; Hill n 2.77±0.17; FP: 25 mM HEPES, 10 mM Mg(OAc)2, 25 mM NaOAc, 75 mM KOAc, pH 7.5, 1 nM DNA, TFAM 0-15 nM diluted on ice (read temperature not stated); AFM oligos: on ice, 2 min; details: protein: recombinant; label: 5' 6-FAM on strand 1; blunt
TFAM (no MTS) [18] = target: T1, TFAM (no MTS); experiment: fluorescence anisotropy; +UVC; Hill n 2.18±0.14; FP: 25 mM HEPES, 10 mM Mg(OAc)2, 25 mM NaOAc, 75 mM KOAc, pH 7.5, 1 nM DNA, TFAM 0-15 nM diluted on ice (read temperature not stated); AFM oligos: on ice, 2 min; details: protein: recombinant; label: 5' 6-FAM on strand 1; blunt
TFAM (no MTS) [19] = target: T1, TFAM (no MTS); experiment: fluorescence anisotropy; Hill n 2.63±0.22; FP: 25 mM HEPES, 10 mM Mg(OAc)2, 25 mM NaOAc, 75 mM KOAc, pH 7.5, 1 nM DNA, TFAM 0-15 nM diluted on ice (read temperature not stated); AFM oligos: on ice, 2 min; details: protein: recombinant; label: 5' 6-FAM on strand 1; blunt

B1: ND2_401 (dsDNA)
DNA 1: CAAATGGGCCATTATCGAAGAATTCACAAAAAA
DNA 2: TTTTTTGTGAATTCTTCGATAATGGCCCATTTG
TFAM (no MTS) [1]
  Kd: 4.36 ± 0.24 nM

B2: ND2_401 +UVC (dsDNA)
DNA 1: B1 DNA 1
DNA 2: B1 DNA 2
modifications: UVC 1500 J/m2 photolesions (positions undefined)
TFAM (no MTS) [2]
  Kd: 6.24 ± 0.15 nM

B3: ND1_288 (dsDNA)
DNA 1: CTCCACACTAGCAGAGACCAACCGAACCCCCTT
DNA 2: AAGGGGGTTCGGTTGGTCTCTGCTAGTGTGGAG
TFAM (no MTS) [3]
  Kd: 3.41 ± 0.03 nM

B4: ND1_288 +UVC (dsDNA)
DNA 1: B3 DNA 1
DNA 2: B3 DNA 2
modifications: UVC 1500 J/m2 photolesions (positions undefined)
TFAM (no MTS) [4]
  Kd: 6.12 ± 0.22 nM

B5: TRNT_10 (dsDNA)
DNA 1: CTTGTAGTATAAACTAATACACCAGTCTTGTAA
DNA 2: TTACAAGACTGGTGTATTAGTTTATACTACAAG
TFAM (no MTS) [5]
  Kd: 4.24 ± 0.12 nM

B6: TRNT_10 +UVC (dsDNA)
DNA 1: B5 DNA 1
DNA 2: B5 DNA 2
modifications: UVC 1500 J/m2 photolesions (positions undefined)
TFAM (no MTS) [6]
  Kd: 7.79 ± 0.8 nM

B7: ND6_87 (dsDNA)
DNA 1: TTCCTACACTATTAAAGTTTACCACAACCACCA
DNA 2: TGGTGGTTGTGGTAAACTTTAATAGTGTAGGAA
TFAM (no MTS) [7]
  Kd: 5.2 ± 0.32 nM

B8: ND6_87 +UVC (dsDNA)
DNA 1: B7 DNA 1
DNA 2: B7 DNA 2
modifications: UVC 1500 J/m2 photolesions (positions undefined)
TFAM (no MTS) [8]
  Kd: 7.63 ± 0.21 nM

B9: ND4_473 (dsDNA)
DNA 1: CGGCGCAGTCATTCTCATAATCGCCCACGGGCT
DNA 2: AGCCCGTGGGCGATTATGAGAATGACTGCGCCG
TFAM (no MTS) [9]
  Kd: 4.95 ± 0.03 nM

B10: ND4_473 +UVC (dsDNA)
DNA 1: B9 DNA 1
DNA 2: B9 DNA 2
modifications: UVC 1500 J/m2 photolesions (positions undefined)
TFAM (no MTS) [10]
  Kd: 5.36 ± 0.14 nM

B11: ND1_450 (dsDNA)
DNA 1: ACTCACCCTAGCATTACTTATATGATATGTCTC
DNA 2: GAGACATATCATATAAGTAATGCTAGGGTGAGT
TFAM (no MTS) [11]
  Kd: 4.33 ± 0.17 nM

B12: ND1_450 +UVC (dsDNA)
DNA 1: B11 DNA 1
DNA 2: B11 DNA 2
modifications: UVC 1500 J/m2 photolesions (positions undefined)
TFAM (no MTS) [12]
  Kd: 6.36 ± 0.51 nM

B13: ND1_353 40mer (dsDNA)
DNA 1: CACAAACATTATTATAATAAACACCCTCACCACTACAATC
DNA 2: GATTGTAGTGGTGAGGGTGTTTATTATAATAATGTTTGTG
TFAM (no MTS) [13]
  Kd: 5.69 ± 0.15 nM

B14: ND1_353 40mer +UVC (dsDNA)
DNA 1: B13 DNA 1
DNA 2: B13 DNA 2
modifications: UVC 1500 J/m2 photolesions (positions undefined)
TFAM (no MTS) [14]
  Kd: 7.25 ± 0.39 nM

B15: ND1_353 (dsDNA)
DNA 1: ATTATTATAATAAACACCCTCACCACTACAATC
DNA 2: GATTGTAGTGGTGAGGGTGTTTATTATAATAAT
TFAM (no MTS) [15]
  Kd: 7.56 ± 0.34 nM

B16: ND1_353 +UVC (dsDNA)
DNA 1: B15 DNA 1
DNA 2: B15 DNA 2
modifications: UVC 1500 J/m2 photolesions (positions undefined)
TFAM (no MTS) [16]
  Kd: 7.66 ± 0.88 nM

B17: COX2_229 (dsDNA)
DNA 1: GCCCCCATTCGTATAATAATTACATCACAAGAC
DNA 2: GTCTTGTGATGTAATTATTATACGAATGGGGGC
TFAM (no MTS) [17]
  Kd: 3.94 ± 0.03 nM

B18: COX2_229 +UVC (dsDNA)
DNA 1: B17 DNA 1
DNA 2: B17 DNA 2
modifications: UVC 1500 J/m2 photolesions (positions undefined)
TFAM (no MTS) [18]
  Kd: 4.87 ± 0.35 nM

B19: ND3_92 (dsDNA)
DNA 1: TTAGTAGCTATTACCTTCTTATTATTTGATCTA
DNA 2: TAGATCAAATAATAAGAAGGTAATAGCTACTAA
TFAM (no MTS) [19]
  Kd: 4.53 ± 0.13 nM
